These results are taken from patent US20080248467, “System for pulling out regulatory elements using yeast” (published 2008).

This data set deals with Pax3 (GST fusion or 6xHis) (UniProt P24610 P24610:1-479). Description: EMSA; 25 C. The conditions noted are these: tags: GST-Pax3 or 6xHis-Pax3, bacterially expressed; label: 32P; overhangs. Here is the method:
Probes were generated by end-labeling double-stranded oligonucleotides with γ³² P-dATP or PCR labeling with α³²P-dGTP. Probes were incubated with or without 6×-His-Pax3 or GST-PAX3 at 25° C., and the complexes were resolved on a 6% Tris-glycine polyacrylamide gel. The free probes are designated by the bottom bracket, and the shifted Pax3:DNA complex by the asterisk to the right of each gel.
Probes were generated by end labeling double-stranded oligonucleotides with γ³²P-dATP or PCR labeling with α³²P-dGTP. Probes were incubated with or without 6×-His-Pax3 or GST-PAX3 at 25° C., and the complexes were resolved on a 6% Tris-glycine polyacrylamide gel. The location of the free probes is indicated by the bracket at left, and the shifted Pax3:DNA complexes by the asterisks to the right of each gel.
Background: A gel shift assay detects complexes by their altered migration in electrophoresis.

Sequence of Pax3 (GST fusion or 6xHis) (P24610 whole entry, the tested form may be a part, one chain of several): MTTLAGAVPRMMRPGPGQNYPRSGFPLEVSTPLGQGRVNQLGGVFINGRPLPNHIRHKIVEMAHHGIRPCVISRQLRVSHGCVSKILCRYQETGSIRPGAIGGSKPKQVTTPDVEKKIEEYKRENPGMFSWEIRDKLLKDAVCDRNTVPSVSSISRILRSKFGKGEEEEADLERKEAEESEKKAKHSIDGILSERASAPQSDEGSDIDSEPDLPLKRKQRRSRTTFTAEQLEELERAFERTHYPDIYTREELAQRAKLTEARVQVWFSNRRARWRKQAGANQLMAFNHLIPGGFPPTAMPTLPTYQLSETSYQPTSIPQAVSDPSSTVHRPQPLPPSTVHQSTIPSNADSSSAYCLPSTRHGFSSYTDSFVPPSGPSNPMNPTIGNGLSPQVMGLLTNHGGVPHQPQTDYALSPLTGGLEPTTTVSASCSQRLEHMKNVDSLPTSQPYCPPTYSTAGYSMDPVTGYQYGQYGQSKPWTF

B1: 2x Pax3 oligo (dsDNA)
DNA 1: CAGTGACGATTAGCACCGTCACGCTTAGATATAGTGACGATTAGCACCGTCACGCTTAGATATA
DNA 2: CGCGTATATCTAAGCGTGACGGTGCTAATCGTCACTATATCTAAGAGTGACGGTGCTAATCGTCACTGAGCT
B1: the binding result was “binds”.
